± gives the uncertainty stated by the source.
B1: Transcription elongation factor A N-terminal and central domain-containing protein, residues 30 to 77; numbered along this chain, Q8N8B7 (parent)
chain: LTELETIYVTKEHLQETDVVRAVYRVLKNCPSVALKKKAKCLLSKWKA

Variants of: B1
Assay: abundance fitness (aPCA) (normalised: wild type 0, dead -1); higher = more abundant; growth selection in yeast, the domain comes from the species named
Details: Homo sapiens

Variant	abundance fitness
LTELETIYVTKEHLQETDVVRAEYRVLKNCPSVALKKKAKCLLSKWKA [V23E]	-0.584 ± 0.11
LTELETIYVTKEHLQETDVVRAIYRVLKNCPSVALKKKAKCLLSKWKA [V23I]	0.189 ± 0.091
LTELETIYVTKEHLQETDVVRALYRVLKNCPSVALKKKAKCLLSKWKA [V23L]	0.041 ± 0.095
LTELETIYVTKEHLQETDVVRANYRVLKNCPSVALKKKAKCLLSKWKA [V23N]	-1.04 ± 0.23
LTELETIYVTKEHLQETDVVRAWYRVLKNCPSVALKKKAKCLLSKWKA [V23W]	-0.009 ± 0.1
LTELETIYVTKEHLQETDVVRAKYRVLKNCPSVALKKKAKCLLSKWKA [V23K]	-0.573 ± 0.1
LTELETIYVTKEHLQETDVVRASYRVLKNCPSVALKKKAKCLLSKWKA [V23S]	-0.54 ± 0.11
LTELETIYVTKEHLQETDVVRAQYRVLKNCPSVALKKKAKCLLSKWKA [V23Q]	-0.901 ± 0.16
LTELETIYVTKEHLQETDVVRAMYRVLKNCPSVALKKKAKCLLSKWKA [V23M]	-0.087 ± 0.12
LTELETIYVTKEHLQETDVVRAPYRVLKNCPSVALKKKAKCLLSKWKA [V23P]	-0.833 ± 0.16
LTELETIYVTKEHLQETDVVRADYRVLKNCPSVALKKKAKCLLSKWKA [V23D]	-0.578 ± 0.16
LTELETIYVTKEHLQETDVVRAFYRVLKNCPSVALKKKAKCLLSKWKA [V23F]	-0.021 ± 0.27
LTELETIYVTKEHLQETDVVRAAYRVLKNCPSVALKKKAKCLLSKWKA [V23A]	-0.453 ± 0.091
LTELETIYVTKEHLQETDVVREVYRVLKNCPSVALKKKAKCLLSKWKA [A22E]	-0.328 ± 0.09
LTELETIYVTKEHLQETDVVRKVYRVLKNCPSVALKKKAKCLLSKWKA [A22K]	0.082 ± 0.11
LTELETIYVTKEHLQETDVVRIVYRVLKNCPSVALKKKAKCLLSKWKA [A22I]	-0.419 ± 0.2
LTELETIYVTKEHLQETDVVRNVYRVLKNCPSVALKKKAKCLLSKWKA [A22N]	-0.099 ± 0.13
LTELETIYVTKEHLQETDVVRLVYRVLKNCPSVALKKKAKCLLSKWKA [A22L]	-0.119 ± 0.074
LTELETIYVTKEHLQETDVVRQVYRVLKNCPSVALKKKAKCLLSKWKA [A22Q]	-0.082 ± 0.11
LTELETIYVTKEHLQETDVVRDVYRVLKNCPSVALKKKAKCLLSKWKA [A22D]	-0.209 ± 0.095
LTELETIYVTKEHLQETDVVRMVYRVLKNCPSVALKKKAKCLLSKWKA [A22M]	-0.053 ± 0.1
LTELETIYVTKEHLQETDVVRYVYRVLKNCPSVALKKKAKCLLSKWKA [A22Y]	-0.074 ± 0.11
LTELETIYVTKEHLQETDVVRWVYRVLKNCPSVALKKKAKCLLSKWKA [A22W]	0.256 ± 0.076
LTELETIYVTKEHLQETDVVRVVYRVLKNCPSVALKKKAKCLLSKWKA [A22V]	-0.37 ± 0.079
LTELETIYVTKEHLQETDVVRGVYRVLKNCPSVALKKKAKCLLSKWKA [A22G]	-0.046 ± 0.066
LTELETIYVTKEHLQETDVVRRVYRVLKNCPSVALKKKAKCLLSKWKA [A22R]	0.277 ± 0.066
LTELETIYVTKEHLQETDVVRHVYRVLKNCPSVALKKKAKCLLSKWKA [A22H]	-0.328 ± 0.15

Variant	abundance fitness
LTELETIYVTKEHLQETDVVRSVYRVLKNCPSVALKKKAKCLLSKWKA [A22S]	-0.007 ± 0.09
LTELETIYVTKEHLQETDVVRCVYRVLKNCPSVALKKKAKCLLSKWKA [A22C]	-0.206 ± 0.095
LTELETIYVTKEHLQETDVVRFVYRVLKNCPSVALKKKAKCLLSKWKA [A22F]	-0.308 ± 0.13
LTELETIYVTKEHLQETDVVRPVYRVLKNCPSVALKKKAKCLLSKWKA [A22P]	-0.143 ± 0.096
LTELETIYVTKEHLQETDVCRAVYRVLKNCPSVALKKKAKCLLSKWKA [V20C]	-0.034 ± 0.11
LTELETIYVTKEHLQETDVHRAVYRVLKNCPSVALKKKAKCLLSKWKA [V20H]	-0.491 ± 0.24
LTELETIYVTKEHLQETDVNRAVYRVLKNCPSVALKKKAKCLLSKWKA [V20N]	-0.741 ± 0.39
LTELETIYVTKEHLQETDVLRAVYRVLKNCPSVALKKKAKCLLSKWKA [V20L]	0.113 ± 0.079
LTELETIYVTKEHLQETDVWRAVYRVLKNCPSVALKKKAKCLLSKWKA [V20W]	0.07 ± 0.1
LTELETIYVTKEHLQETDVYRAVYRVLKNCPSVALKKKAKCLLSKWKA [V20Y]	-0.301 ± 0.14
LTELETIYVTKEHLQETDVARAVYRVLKNCPSVALKKKAKCLLSKWKA [V20A]	0.015 ± 0.1
LTELETIYVTKEHLQETDVDRAVYRVLKNCPSVALKKKAKCLLSKWKA [V20D]	-0.215 ± 0.15
LTELETIYVTKEHLQETDVTRAVYRVLKNCPSVALKKKAKCLLSKWKA [V20T]	-0.414 ± 0.24
LTELETIYVTKEHLQETDVSRAVYRVLKNCPSVALKKKAKCLLSKWKA [V20S]	-0.594 ± 0.13
LTELETIYVTKEHLQETDVGRAVYRVLKNCPSVALKKKAKCLLSKWKA [V20G]	-0.109 ± 0.086
LTELETIYVTKEHLQETDVERAVYRVLKNCPSVALKKKAKCLLSKWKA [V20E]	-0.561 ± 0.18
LTELETIYVTKEHLQETDVQRAVYRVLKNCPSVALKKKAKCLLSKWKA [V20Q]	-0.633 ± 0.23
LTELETIYVTKEHLQETDVPRAVYRVLKNCPSVALKKKAKCLLSKWKA [V20P]	-0.19 ± 0.12
LTELETIYVTKEHLQETDVFRAVYRVLKNCPSVALKKKAKCLLSKWKA [V20F]	0.071 ± 0.21
LTELETIYVTKEHLQETDVVRAVYKVLKNCPSVALKKKAKCLLSKWKA [R25K]	-0.364 ± 0.11
LTELETIYVTKEHLQETDVVRAVYCVLKNCPSVALKKKAKCLLSKWKA [R25C]	-0.92 ± 0.25
LTELETIYVTKEHLQETDVVRAVYGVLKNCPSVALKKKAKCLLSKWKA [R25G]	-0.136 ± 0.08
LTELETIYVTKEHLQETDVVRAVYEVLKNCPSVALKKKAKCLLSKWKA [R25E]	-0.743 ± 0.15
LTELETIYVTKEHLQETDVVRAVYLVLKNCPSVALKKKAKCLLSKWKA [R25L]	-0.71 ± 0.096
LTELETIYVTKEHLQETDVVRAVYDVLKNCPSVALKKKAKCLLSKWKA [R25D]	-0.443 ± 0.15
LTELETIYVTKEHLQETDVVRAVYAVLKNCPSVALKKKAKCLLSKWKA [R25A]	-0.326 ± 0.087
LTELETIYVTKEHLQETDVVRAVYFVLKNCPSVALKKKAKCLLSKWKA [R25F]	-0.811 ± 0.23

Source: the Human Domainome abundance scans (Beltran et al. 2025)
